Key:
GST-Smad4, Q13485 = target: T1, GST-Smad4, Q13485; test: GST pull-down, immunoblot band quantification; settings: chain shown with the change; HEK293T cell lysate; n=3; read off a plot
T1 chain: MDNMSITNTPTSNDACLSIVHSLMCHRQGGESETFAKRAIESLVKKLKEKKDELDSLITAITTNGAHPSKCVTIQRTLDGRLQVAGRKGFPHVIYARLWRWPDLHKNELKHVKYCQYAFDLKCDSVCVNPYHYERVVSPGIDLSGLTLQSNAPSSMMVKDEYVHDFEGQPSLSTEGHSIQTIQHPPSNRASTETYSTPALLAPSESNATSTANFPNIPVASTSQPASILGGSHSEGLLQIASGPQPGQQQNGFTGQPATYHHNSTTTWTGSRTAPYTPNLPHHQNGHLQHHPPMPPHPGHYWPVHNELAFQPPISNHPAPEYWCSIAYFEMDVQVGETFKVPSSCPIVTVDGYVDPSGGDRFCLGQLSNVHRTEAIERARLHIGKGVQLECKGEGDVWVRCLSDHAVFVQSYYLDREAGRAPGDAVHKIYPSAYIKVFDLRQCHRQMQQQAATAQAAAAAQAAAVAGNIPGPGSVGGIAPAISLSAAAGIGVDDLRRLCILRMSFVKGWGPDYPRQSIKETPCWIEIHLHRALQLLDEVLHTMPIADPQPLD

GST-Smad4-MH2, Q13485 = target: T2, GST-Smad4-MH2, Q13485; test: GST pull-down, immunoblot band quantification; settings: chain shown with the change; HEK293T cell lysate; n=3; read off a plot
T2 chain: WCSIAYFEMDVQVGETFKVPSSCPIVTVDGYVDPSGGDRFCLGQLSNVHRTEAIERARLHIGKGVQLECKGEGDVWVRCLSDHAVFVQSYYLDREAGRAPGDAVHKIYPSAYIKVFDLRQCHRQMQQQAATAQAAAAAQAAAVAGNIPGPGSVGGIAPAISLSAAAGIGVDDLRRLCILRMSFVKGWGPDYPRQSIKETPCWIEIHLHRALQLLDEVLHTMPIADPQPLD

B1: Arl15-WT-GFP A86L (protein)
chain: MSDLRITEAFLYMDYLCFRALCCKGPPPARPEYDLVCIGLTGSGKTSLLSKLCSESPDNVVSTTGFSIKAVPFQNAILNVKELGGLDNIRKYWSRYYQGSQGVIFVLDSASSEDDLEAARNELHSALQHPQLCTLPFLILANHQDKPAARSVQEIKKYFELEPLARGKRWILQPCSLDDMDALKDSFSQLINLLEEKDHEAVRM
B1 gave an other: relative amount of Arl15-AL-GFP pulled down (GST-Smad4, Q13485) of 1 and an other: relative amount of Arl15-AL-GFP pulled down (GST-Smad4-MH2, Q13485) of 0.55.
